Ends that are not written are not given here.

The test system of data set [1] is rat gastro-intestinal tract (closed loop). The data set can be described thus: Transport of preselected phage libraries in rat closed loop, detected by oligonucleotide hybridization/autoradiography. Particulars: in words. As for the experimental part:
Four preselected phage libraries, GI-D2H, GI-hSI, GI-HPT1 and GI-hPEPT1, were constructed by pooling phage previously selected by screening random phage display libraries D38 and DC43 using the HPT1, HPEPT1, D2H and hSI receptor or binding sites located in the GIT.
In particular, phages selected in vitro to each receptor or binding site located in the GIT were amplified in E. coli, PEG-precipitated, resuspended in TBS and the titer of each phage sample was determined by plaquing in E. coli as described above. […] Using the in situ loop model described above, 0.5 ml of preselected phage library solution was injected into the tied-off portion of the duodenum/jejunum. Blood was collected into heparinized tubes from the portal vein at 0, 15, 30, 45 and 60 minutes. A blood sample was taken from the systemic circulation at the end of the experiment. Similarly, the portion of the duodenum/jejunum used for phage injection was taken at the end of the experiment.
Thirty microliters of the collected portal blood (neat and 10^−2, 10^−1, 10^−6 dilutions) was added to 30 μl E. coli K91Kan cells (overnight culture) and incubated at 37° C. for 10 min. Subsequently, 3 ml of top agarose was added and the samples were plated for plaques. One hundred microliters of the collected portal blood was added to 100 μl of E. coli K91Kan. Five milliliters of LB medium was then added and the samples were incubated at 37° C. overnight in a rotating microbial incubator. The E. coli was removed by centrifugation and the amplified phage supernatant samples were either titered directly or were PEG-precipitated, resuspended in TBS and titered. Following titration of the amplified phage, samples containing phage from each set of animals were combined, adjusting the titer of each sample to the same titer, and were plated for plaques on LB agar lates (22 cm^2 square plates). Either 12,000 or 24,000 phage were lated for plaques.
Thirty microliters of the collected systemic blood (neat and 10^−2, 10^−1, 10^−6 dilutions) was added to E. coli K91Kan cells, incubated at 37° C. for 10 min. Three ml of top agarose was then added and the samples were plated for plaques. One hundred microliters of the collected systemic blood was added to 100 μl of E. coli K91Kan, incubated at 37° C. for 10 min. Five milliliters of LB medium was then added and the samples were incubated at 37° C. overnight in a rotating microbial incubator. The E. coli was removed by centrifugation and the amplified phage supernatant samples were either titered directly or were PEG-precipitated, resuspended in TBS and titered. Following titration of the amplified phage, samples containing phage from each set of animals were combined, adjusting the titer of each sample to the same titer, and were plated for plaques on LB agar plates (22 cm^2 square plates). Either 12,000 or 24,000 phage were plated for plaques.
The intestinal tissue portion used in each closed loop was excised. […] Alternatively, the tissue (in PBS supplemented with protease inhibitors) was homogenized in an Ultra Thorex homogenizer, washed 3 times in PBS containing protease inhibitors and resuspended in PBS containing protease inhibitors (Int-G samples). In each case, serial dilutions (neat and 10^−2, 10^−4, 10^−6 dilutions) of the tissue homogenate was titered in E. coli.
The phage amplified from the portal blood, systemic blood and intestinal tissue was plated for plaques. […] The filters were air-dried, and the DNA was cross-linked to the filter (UV crosslinking: 2 min, high setting). The filters were incubated in pre-hybridization buffer (6×SSC, 5× Denhardt's solution, 0.1% SDS, […] yeast tRNA) at 40° C.–45° C. for at least 60 min.
Synthetic oligonucleotides, (22-mers), complimentary to regions coding for the receptor or binding sites used to create the preselected phage library, were synthesized (see Table 14 below).

Data set [2] concerns the target bovine serum albumin (bovine) (UniProt P02769). The data set can be described thus: phage ELISA on coated BSA.
The target in data set [3] is T1, recombinant hPEPT1 receptor domain (human PEPT1, amino acid residues 391-571), His-tag fusion protein (human, UniProt P46059 391-571).
T1 construct: purified under denaturing conditions; coated on plates
T1 sequence: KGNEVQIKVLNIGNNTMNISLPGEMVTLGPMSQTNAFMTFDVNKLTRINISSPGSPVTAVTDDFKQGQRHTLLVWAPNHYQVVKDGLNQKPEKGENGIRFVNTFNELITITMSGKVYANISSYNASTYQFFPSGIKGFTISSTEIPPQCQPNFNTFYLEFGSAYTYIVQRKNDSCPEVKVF
The experiment in a line: phage ELISA on coated hPEPT1. As for the experimental part:
(§1) 6.6. Receptor ELISA Procedure 96 well plates were coated overnight with GIT receptor, BSA and, optionally, IDE (insulin degrading enzyme, an irrelevant His-fusion protein)or hTF. The plates were blocked for one hour with 0.5% BSA-PBS. After clarification, the amplified phage were diluted 1:100 in 1% BSA plus 0.05% Tween 20 in PBS and added to the plates. Following incubation of the plates on a rotator for 1 to 2 hours, the plates were washed 5 times with 1% BSA plus 0.05% Tween 20 in PBS. […] After the plates were washed 5 times, as described above, TMB substrate was added to the wells. The plates were read at 650 nm absorbance.
For orientation: In an ELISA, binding on a coated surface is turned into a signal by an enzyme label.

Data set [4] concerns the target T1, recombinant hPEPT1 receptor domain …. The experiment in a line: phage ELISA, OD on hPEPT1 over OD on BSA. The method, then:
as §1

In data set [5] the target is T2, recombinant hPEPT1 receptor domain (human PEPT1, amino acid residues 391-571), His-tag fusion protein (human) (UniProt P46059).
T2 sequence: T1 sequence
The data set can be described thus: phage ELISA on coated hPEPT1.

Data set [6] deals with T2, recombinant hPEPT1 receptor domain (human PEPT1, amino acid residues 391-571), His-tag fusion protein (human). The experiment in a line: phage ELISA, OD on hPEPT1 over OD on BSA.

bovine serum albumin (bovine), sequence (P02769 25-607 limits assumed): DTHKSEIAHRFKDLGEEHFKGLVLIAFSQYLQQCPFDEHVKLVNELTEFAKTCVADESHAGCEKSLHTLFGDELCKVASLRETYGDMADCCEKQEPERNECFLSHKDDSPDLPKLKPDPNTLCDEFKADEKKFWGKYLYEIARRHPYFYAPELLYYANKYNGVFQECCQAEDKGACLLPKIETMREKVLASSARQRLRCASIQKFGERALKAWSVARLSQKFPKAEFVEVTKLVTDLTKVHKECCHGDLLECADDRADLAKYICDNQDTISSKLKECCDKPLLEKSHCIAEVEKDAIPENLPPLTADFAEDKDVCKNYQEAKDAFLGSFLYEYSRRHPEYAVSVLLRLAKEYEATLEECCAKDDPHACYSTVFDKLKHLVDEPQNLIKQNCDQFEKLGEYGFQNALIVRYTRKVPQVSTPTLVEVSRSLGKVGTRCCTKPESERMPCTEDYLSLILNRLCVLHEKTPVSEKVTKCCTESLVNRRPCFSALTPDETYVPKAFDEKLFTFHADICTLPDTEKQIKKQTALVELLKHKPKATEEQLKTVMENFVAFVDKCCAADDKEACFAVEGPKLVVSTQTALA

In the case of “STPPSREAYSRPYSVDSDSDTNAKHSSHNRRLRTRSRPN (not fully specified) [PAX2]”, in data set [1] (HPT1 pool, PAX2 used at 4x concentration), the “Presence in the portal or systemic circulation” value is “found in the portal and systemic circulation”. In addition, in data set [1] (hPEPT1 pool), the “Binding to / presence in the intestine samples” value is “not found” and the “Presence in the portal circulation” value is reported as “found”.

B1: phage PAX18 (peptide)
peptide: SFLRFQSPRFEDYSRTISRLRNATNPSNVSDAHNNRALA
modifications: also: displayed as N-terminal pIII fusion on M13 phage
notes: M13 phage displaying this insert as N-terminal pIII fusion; whole phage in the ELISA; not shown: M13 phage particle / pIII display carrier (and vector flanks)
B1: the OD in data set [2] was 0.087 OD 650 nm; in data set [3], 0.416 OD 650 nm. Moreover, in data set [4], the PEPT1/BSA is 5 ratio.

B2: phage PAX40 (peptide)
peptide: RASTQGGRGVAPEFGASVLGRGCGSATYYTNSTSCKDAMGHNYS
modifications: cysteine pairing not given here; also: displayed as N-terminal pIII fusion on M13 phage
notes: as for B1
For B2, the OD in data set [2] was found to be 0.076 OD 650 nm; in data set [3], 0.461 OD 650 nm. The PEPT1/BSA in data set [4] is 6 ratio.

B3: phage P90 (peptide)
peptide: SSADAEKCAGSLLWWGRQNNSGCGSPTKKHLKHRNRSQTSSSSH
modifications: cysteine pairing not given here; also: displayed as N-terminal pIII fusion on M13 phage
notes: M13 phage displaying this insert as N-terminal pIII fusion; whole phage in the ELISA; not shown: M13 pIII coat protein and phage particle (display carrier)
B3: the OD in data set [2] was determined as 0.107 OD 650 nm; in data set [3] it was 1.12 OD 650 nm. Also, the PEPT1/BSA in data set [4] worked out at 9 ratio.

B4: phage PAX35 (peptide)
peptide: RSITDGGINEVDLSSVSNVLENANSHRAYRKHRPTLKRP
modifications: also: displayed as N-terminal pIII fusion on M13 phage
notes: as for B1
Take B4: the OD in data set [2] was 0.065 OD 650 nm; in data set [3], 0.474 OD 650 nm. In addition, the PEPT1/BSA in data set [4] was 7 ratio.

B5: phage PAX46 (peptide)
peptide: SRCTDNEQCPDTGTRSRSVSNARYFSSRLLKTHAPHRP
modifications: cysteine pairing not given here; also: displayed as N-terminal pIII fusion on M13 phage
notes: as for B1
For B5, the OD in data set [2] came out at 0.077 OD 650 nm; in data set [3] it was 0.429 OD 650 nm. For the same molecule, the PEPT1/BSA in data set [4] was determined as 6 ratio.

B6: phage PAX38 (peptide, not shown: large carriers)
peptide: SSKVSSPRDPTVPRKGGNVDYGCGHRSSARMPTSALSSITKCYT
modifications: cysteine pairing not given here; also: displayed as N-terminal pIII fusion on M13 phage
As to B6, the OD in data set [2] came out at 0.064 OD 650 nm; in data set [5], 0.292 OD 650 nm. For the same molecule, in data set [6], the PEPT1/BSA is 5.

B7: phage PAX43 (peptide, not shown: large carriers)
peptide: RWCEKHKFTAARCSAGAGFERDASRPPQPAHRDNTNRNA
modifications: cysteine pairing not given here; also: displayed as N-terminal pIII fusion on M13 phage
As for B7, the OD in data set [2] amounted to 0.069 OD 650 nm; in data set [5], 0.345 OD 650 nm. In addition, in data set [6], the PEPT1/BSA stood at 5.

B8: phage PAX45 (peptide)
peptide: SFQVYPDHGLERHALDGTGPLYAMPGRWIRARPQNRDRQ
modifications: also: displayed as N-terminal pIII fusion on M13 phage
notes: as for B1
On to B8, for which the OD in data set [2] was 0.081 OD 650 nm; in data set [3] it was 0.419 OD 650 nm. Further, in data set [4], the PEPT1/BSA turned out to be 5 ratio.

B9: phage PAX17 (peptide)
peptide: SQVDSFRNSFRWYEPSRALCHGCGKRDTSTTRIHNSPSDSYPTR
modifications: cysteine pairing not given here; also: displayed as N-terminal pIII fusion on M13 phage
notes: as for B1
Take B9: the values for the OD in data set [2] and in data set [3] were 0.095 OD 650 nm and 0.514 OD 650 nm, respectively. Further, the PEPT1/BSA in data set [4] was 5 ratio.

B10: phage P31 (peptide)
peptide: SARDSGPAEDGSRAVRLNGVENANTRKSSRSNPRGRRHP
modifications: also: displayed as N-terminal pIII fusion on M13 phage
notes: as for B3
Regarding B10, the OD was 0.075 OD 650 nm in data set [2] and 0.807 OD 650 nm in data set [3]. In addition, the PEPT1/BSA in data set [4] came out at 11 ratio.

Source of the values: patent US7053177B1, “Random peptides that bind to gastro-intestinal tract (GIT) transport receptors and related methods” (Cytogen Corporation, priority 1997, dated 2006).
